Source: the supplement of paper PMC6757056
± gives the standard deviation of the averaged measurements.

B1: library; a variant is named by its letters at N, in order (parent)
chain: GCUGUCACCGGUGCUUGGUACGUUAUAUUCAGCCGGUCUGAUGAGUCUNNNNNNAGACGAAACAGC

Tests used:
(6R,S)-folinic acid [1] = variants of: B1; assay: normalized RNA/DNA level without ligand (relative to sTRSVctl = 100) (log10 (% of sTRSVctl)); HEK293T overexpressing SLC46A1; higher = less ribozyme self-cleavage, higher mRNA level; conditions: without (6R,S)-folinic acid; ligand present: no
Outline: (§1)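 Total RNA, extracted with EDTA 72 h after HEK293T cells were transfected with 4 µg per 6-well well of reporter-linked ribozyme switch library plasmids, was reverse-transcribed, amplified, barcoded and sequenced. Ligand, if used, was added 1 h before transfection. RNA level was derived from RNA reads divided by DNA reads and normalized to a spiked-in non-cleaving sequence or to the top sequences. This was multiplied by 100 and log10-transformed, with the top set of 25 sequences and a ≥100 DNA read minimum.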

(6R,S)-folinic acid [2] = variants of: B1; assay: normalized RNA/DNA level with ligand (relative to sTRSVctl = 100) (log10 (% of sTRSVctl)); HEK293T overexpressing SLC46A1; ligand concentration (+) RNA-Seq: 6 mM; higher = less ribozyme self-cleavage, higher mRNA level; conditions: with (6R,S)-folinic acid; ligand present: yes
Outline: as §1

(6R,S)-folinic acid [3] = variants of: B1; assay: FACS-Seq fitted mean relative fluorescence mCherry/BFP without ligand (log10 relative fluorescence); HEK293T overexpressing SLC46A1; higher = higher reporter protein expression; conditions: without (6R,S)-folinic acid; ligand present: no
Outline: (§2)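 Cells were sorted into 6 bins on the mCherry/BFP ratio after 48 h with or without ligand. These were enriched HEK293T cells transduced by lentivirus with a ribozyme-switch mCherry reporter plus an EF1α-BFP marker. Fluorescence was obtained by fitting a normal distribution to sequencing-derived bin counts. Counts came from MiSeq sequencing of PCR-amplified, barcoded genomic DNA, binned by log10(mCherry/BFP), with means scaled to five spiked-in control ribozymes.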

(6R,S)-folinic acid [4] = variants of: B1; assay: FACS-Seq fitted mean relative fluorescence mCherry/BFP with ligand (log10 relative fluorescence); HEK293T overexpressing SLC46A1; ligand concentration (+) FACS-Seq: 6 mM; higher = higher reporter protein expression; conditions: with (6R,S)-folinic acid; ligand present: yes
Outline: as §2

Row | Variant | normalized RNA/DNA level without ligand (log10) ((6R,S)-folinic acid [1]) | normalized RNA/DNA level with ligand (log10) ((6R,S)-folinic acid [2]) | FACS-Seq fitted mean (log10) ((6R,S)-folinic acid [3]) | FACS-Seq fitted mean (log10) ((6R,S)-folinic acid [4])
1 | UAACGU | 1.95 ± 0.028 | 2.003 ± 0.013 |  | 
2 | CACAUU | 2.02 ± 0.026 | 2.02 ± 0.059 |  | 
3 | CACAUC | 2.035 ± 0.0021 | 2.04 ± 0.025 |  | 
4 | CACAUG | 2.02 ± 0.01 | 2.018 ± 0.017 |  | 
5 | CACACG | 2.0281 ± 0.00028 | 2.04 ± 0.036 |  | 
6 | CACACC | 2.061 ± 0.0083 | 2 ± 0.073 |  | 
7 | UACCAA | 1.966 ± 0.0066 | 1.99 ± 0.02 |  | 
8 | CAAAUU | 2.011 ± 0.0089 | 2.03 ± 0.027 |  | 
9 | CAAAUG | 2.007 ± 0.0091 | 2.007 ± 0.017 |  | 
10 | CAAAUC | 2.05 ± 0.026 | 2.02 ± 0.047 |  | 
11 | CAAAUA | 1.95 ± 0.01 | 1.99 ± 0.025 |  | 
12 | AUUUGG | 1.88 ± 0.0039 | 1.96 ± 0.023 | 0.293 ± 0.04 | 0.37 ± 0.04
13 | CUUGUG | 2.021 ± 0.012 | 2.02 ± 0.039 | 0.147 ± 0.16 | -0.331 ± 0.28
14 | CUUUUU | 1.991 ± 0.013 | 2.021 ± 0.018 | 0.61 ± 0.16 | 0.733 ± 0.016
15 | CUUUUC | 2.06 ± 0.023 | 2.02 ± 0.036 | 0.721 ± 0.2 | 0.481 ± 0.091
16 | UAAUCU | 2.021 ± 0.012 | 2.046 ± 0.0022 |  | 
17 | UAAUCG | 1.795 ± 0.012 | 1.988 ± 0.016 |  | 
18 | UAAUCC | 2.001 ± 0.0044 | 2.03 ± 0.03 |  | 
19 | UAAUCA | 1.945 ± 0.013 | 1.97 ± 0.04 |  | 
20 | AAAAGA | 1.957 ± 0.0042 | 2.02 ± 0.021 |  | 
21 | AAAAGU | 1.94 ± 0.013 | 2 ± 0.041 |  | 
22 | GAAAUC | 2.044 ± 0.0097 | 2.027 ± 0.018 |  | 
23 | GAAAUU | 2.03 ± 0.0031 | 2.05 ± 0.025 |  | 
24 | GAAGCC | 2.022 ± 0.0083 | 2.03 ± 0.047 |  | 
25 | GAAAGC | 1.966 ± 0.0051 | 2.0058 ± 0.0012 |  | 
26 | GAAAGU | 1.9823 ± 0.00097 | 2.02 ± 0.034 |  | 
